Test results: the supplement of paper PMC9170038

Tested on: MS2 coat protein
Test: apparent KD of MS2 coat protein; designed switch direction (-1 OFF switch, 1 ON switch): 1; higher = weaker reporter binding
Outline: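 Apparent KD, taken as the median over clusters for each design, was obtained by curve-fitting normalised cluster fluorescence. Designed RNA switches had been transcribed on Illumina chips by stalled E. coli RNA polymerase and titrated with SNAP-549-labelled MS2 coat protein, doubling from 0.7 or 1.5 nM to 3 µM.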

[1] = input ligand: microRNA oligo, concentration not stated
[2] = Eterna round: R95, input ligand: FMN 200 uM
[3] = Eterna round: R95, input ligand: microRNA oligo, concentration not stated
[4] = Eterna round: R95, input ligand: none

## GUAGCAUACCGAGGAUAUUCACAUGAGGAUCACCCAUGUAUUAAUAGGCCACAUUAGUGGCCUUGGGAGAAGGCGGAAUGCUAC [Xeonanis - 20 Mod48] (Eterna round: R96, puzzle: Same State NG 2)
Input ligand: FMN 200 uM
  apparent KD of MS2 coat protein: 10.8 nM
[1]
  apparent KD of MS2 coat protein: 11 nM
Input ligand: none
  apparent KD of MS2 coat protein: 14.6 nM

## GAAUAAAUGAUAGGAUAUACAUGAGGAAUUCUCGUAGAAGGAUCAUGACAUGAGGAUCACCCAUGUAACGCUCGAAAGAGCGUA [Mat - Same State NG 1 - JL mod - D41] (Eterna round: R96, puzzle: Same State NG 1)
Input ligand: FMN 200 uM
  apparent KD of MS2 coat protein: 607 nM
[1]
  apparent KD of MS2 coat protein: 733 nM
Input ligand: none
  apparent KD of MS2 coat protein: 928 nM

## CGUCCGGCCUGAGCUGGUCGGAAGCAUGUACAUGAGGAUCACCCAUGUUCAUGUGCAGGCUUUUUGCUCGUCUUGUG [salish99_mir208a_modof_jandersonlee_004] (puzzle: Sensor for hsa-mir-208a)
[2]
  apparent KD of MS2 coat protein: 39.8 nM
[3]
  apparent KD of MS2 coat protein: 13.1 nM
[4]
  apparent KD of MS2 coat protein: 39.6 nM

## AUAAUAAGGACAGGAUAUGGGAAAGGAAGUGUACUAGAAGGGUCGAGAAGACCAGAACAUGAGGAUCACCCAUGUGAUGGGAAA [PowerStrip SSNG 1.28] (Eterna round: R96, puzzle: Same State NG 1)
Input ligand: FMN 200 uM
  apparent KD of MS2 coat protein: 21.7 nM
[1]
  apparent KD of MS2 coat protein: 23.3 nM
Input ligand: none
  apparent KD of MS2 coat protein: 36.1 nM

## GGCAAUCGCAUUCGAUUGCCUGAGCAUGUACAUGAGGAUCACCCAUGUCAUGUACAGGCUUUUUGCUCGUACUUAUA (puzzle: Sensor for hsa-mir-208a)
[2]
  apparent KD of MS2 coat protein: 91.6 nM
[3]
  apparent KD of MS2 coat protein: 14.9 nM
[4]
  apparent KD of MS2 coat protein: 135 nM

## AUUGUUUAUGCAGGAUAUGAUUAACAUGAGGAUCACCCAUGUGGUGUUGUGAGUAAGGAGAGUGAUCAGAAGGGCAUUUUUUUU [JMF's solution 69] (Eterna round: R96, puzzle: Same State NG 2)
Input ligand: FMN 200 uM
  apparent KD of MS2 coat protein: 735 nM
[1]
  apparent KD of MS2 coat protein: 273 nM
Input ligand: none
  apparent KD of MS2 coat protein: 411 nM

## CCCUCAUGCAGGCUAACACGCUUGUUUUAACAUGAGGAUCACCCAUGUACGUCGCCGUUUCGUGCGGGACGCGCAGA [Anuscear] (Eterna round: R96, puzzle: Sensor for hsa-mir-208a)
Input ligand: FMN 200 uM
  apparent KD of MS2 coat protein: 363 nM
[1]
  apparent KD of MS2 coat protein: 229 nM
Input ligand: none
  apparent KD of MS2 coat protein: 169 nM

## AUAAUAAUAAGUGAGGAUAUGUUGAUAAAGACAUGAGGAUCACCCAUGUGAAAUAAAAUAAUAAUACAGAAGGCACAAUAAUAAA [JMF's solution 2] (puzzle: Same State 2)
[2]
  apparent KD of MS2 coat protein: 25.6 nM
[3]
  apparent KD of MS2 coat protein: 38.7 nM
[4]
  apparent KD of MS2 coat protein: 27.9 nM

## UUGCGGGCUUGAGGAUAUUGAGUACAUAUGUUUAACAUGAGGAUCACCCAUGUGGGUUGCGGUAUCGAGAAGGUAACUUCCUCC [salish99_SSNG2_r04_809] (Eterna round: R96, puzzle: Same State NG 2)
Input ligand: FMN 200 uM
  apparent KD of MS2 coat protein: 169 nM
[1]
  apparent KD of MS2 coat protein: 124 nM
Input ligand: none
  apparent KD of MS2 coat protein: 163 nM

## ACACUCCGUGGAGGAUAUGGGCCUGCCCGGGAUACCGGGCCUAACACAUGAGGAUCACCCAUGUCCCAGAAGGCCGCUGGAGCC [Enenala] (Eterna round: R96, puzzle: Same State NG 2)
Input ligand: FMN 200 uM
  apparent KD of MS2 coat protein: 26.2 nM
[1]
  apparent KD of MS2 coat protein: 55.7 nM
Input ligand: none
  apparent KD of MS2 coat protein: 120 nM

## AGAAGACAUGAGGAUCACCCAUGUACAUAAUGAGGAGAAUGGGAGGAUAUGUAGAGAGAGAGGGAGCAGAAGGUCCAGUAUGAA [Default title] (Eterna round: R96, puzzle: Same State NG 3)
Input ligand: FMN 200 uM
  apparent KD of MS2 coat protein: 98.9 nM
[1]
  apparent KD of MS2 coat protein: 99.2 nM
Input ligand: none
  apparent KD of MS2 coat protein: 148 nM

## ACAUUUAGCUCUUGCACAUGAGGAUCACCCAUGUUCAGUUCACAGGAUAUCUAGUCAAACGGAUCGGAGAAGGGUGGCAGGAGC [Erquzaa] (Eterna round: R96, puzzle: Same State NG 3)
Input ligand: FMN 200 uM
  apparent KD of MS2 coat protein: 86.3 nM
[1]
  apparent KD of MS2 coat protein: 185 nM
Input ligand: none
  apparent KD of MS2 coat protein: 294 nM
